Laboratory results: patent publication US20240116999A1 (TRUSTEES OF INDIANA UNIVERSITY, published 2024)
Bridge positions count the residues as written; N and C are the ends. Square brackets hold non-standard residues; d marks the D form. Ends that are not written are not given here. Orn = NCCC[C@H](N)C(=O)O

Target: glucagon receptor (GCGR)
Test: cell-based or functional assay

EC50, cell-based cyclic AMP (cAMP) activity assay | Binder
126 nM | HSQGTFTSDYS[Orn]KLDSE[Orn]AQDFVQWLMNTEEK (lactam 13-17) [O12, O18, K13, E17-Lactam-Glucagon-EEK]
93.5 nM | HSQGTFTSDYS[Orn]YLDS[Orn][Orn]AQDFVQWLMNTEEK [Glucagon-EEK]
